The assay concerns the target T1, glutathione S-transferase (GST)-fused ABI5 (Arabidopsis thaliana, UniProt Q9SJN0 1-442).
T1 sequence (looked up): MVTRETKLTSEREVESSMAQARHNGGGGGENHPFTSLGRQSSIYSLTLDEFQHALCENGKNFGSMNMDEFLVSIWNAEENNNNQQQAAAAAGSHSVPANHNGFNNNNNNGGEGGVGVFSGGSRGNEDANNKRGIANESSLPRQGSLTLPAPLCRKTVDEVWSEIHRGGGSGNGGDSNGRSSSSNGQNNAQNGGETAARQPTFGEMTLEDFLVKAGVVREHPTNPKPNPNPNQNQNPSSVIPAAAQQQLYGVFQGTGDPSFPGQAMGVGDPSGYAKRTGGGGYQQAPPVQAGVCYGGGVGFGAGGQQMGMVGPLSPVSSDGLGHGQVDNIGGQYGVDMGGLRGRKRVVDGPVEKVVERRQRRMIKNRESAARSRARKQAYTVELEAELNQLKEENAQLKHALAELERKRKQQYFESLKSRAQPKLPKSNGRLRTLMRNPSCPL
The assay can be described thus: pull-down.

B1: MYB70-His (natural protein)
chain: not shown
With B1, the binding result is “binds”.

(Values after PMC8551079 (iScience, 2021).)
